From paper PMC6613885 come the findings set out here.

The first assay has as its target GST-LC3A. As to the kind of experiment: GST-pulldown, in vitro-translated 35S-labelled protein, autoradiography quantification. The following applies: Means ± SD of 3 independent experiments; parent: est. 0.5; read off a plot.
With “Myc-tagged BECN1, full-length, in vitro translated (from UniProt Q14457) F97A; I100A; S90E; S93E; S96E”, the response came to 0.25 % binding.

Turning to “Myc-tagged BECN1, full-length, in vitro translated (from UniProt Q14457) F97A; I100A”, the response was 0.25 % binding.

On to “Myc-tagged BECN1, full-length, in vitro translated (from UniProt Q14457) S90E; S93E; S96E”, for which the response stood at 0.6 % binding.

Still in this assay, the particulars now being: Means ± SD of 3 independent experiments; parent: est. 1.7; read off a plot.
Regarding “Myc-tagged PIK3C3, full-length, in vitro translated (from UniProt Q8NEB9) F198A; I201A”, the response came to 1.8 % binding.

On to “Myc-tagged PIK3C3, full-length, in vitro translated (from UniProt Q8NEB9) F198A; I201A; F250A; V253A”, for which the response was 1 % binding.

As for “Myc-tagged PIK3C3, full-length, in vitro translated (from UniProt Q8NEB9) F250A; V253A”, the response was determined as 1.2 % binding.

The same assay, now with this note: Means ± SD of 3 independent experiments; parent: est. 2.6; read off a plot.
Turning to “Myc-tagged ATG14, full-length, in vitro translated (from UniProt Q6ZNE5) W435A; L438A”, the response was 1.2 % binding.

With “Myc-tagged ATG14, full-length, in vitro translated (from UniProt Q6ZNE5) F64A; F67A; W435A; L438A”, the response was 1 % binding.

On to “Myc-tagged ATG14, full-length, in vitro translated (from UniProt Q6ZNE5) F64A; F67A”, for which the response came to 2.3 % binding.
